Results: the nanobody polyreactivity screen of Harvey et al. (2022)

Experiment: yeast display, Sf9 membrane polyspecificity reagent, FACS + sequencing; frameworks hold sequencing errors
Method in brief: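 Nanobodies from a synthetic yeast display library (Saccharomyces cerevisiae BJ5465), induced 36–48 hours with galactose, were stained 1 hour at 4 °C with 10% biotinylated, detergent-solubilized Sf9 membrane reagent, enriched on streptavidin microbeads, then FACS-sorted. Anti-HA (expression) and streptavidin (reagent binding) fluorescence set low and high (top ~1%) gates. Polyreactivity labels come from the gate of origin. Genes were colony-PCR amplified, MiSeq 2 × 250 sequenced and filtered by CDR length.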

Row | Sequence | polyreactivity (PSR sort gate)
1 | QVPLVESGGGLVQAGGSLRLSCAASGRTFTPNGMGWYRQAPGKERELVAAITYGGGITDYADSVKGRFTISRDNAKNTVYLQMNSLKPEDTAVYYCAATTLSFEGGKYWSKYDYWGQGTQVTVSS | low polyreactivity
2 | QVQLVESGGGLVQAGGSLRLSCAASGRTFLGYAMGWYRQAPGKERELVAGITSGGRTYYADSVKGRFTNSRDNAKNTVYLQMNSLKPEDTAVYYCAADTHGYDPMDYWGQGTQVTVSS | high polyreactivity
3 | QVQLVESGGGLVQAGGSLRLSCAASGRIWVNALGWYRQAPGKEREFVAAISTSSASTYYADSVKGRFTISRDNAKNTVYLQMNSLKPEDTAVYYCASRYLGKKYYWFKTMDYWGQGTQVTVSS | high polyreactivity
4 | QVQLVESGGGLVQAGGSLRLSCAASGGILYHYAMGWYRQAPGIERELVAAIRWSGGSTYYADSVKGRFTISRDNAKNTVYLQMNSLKPEDTAVYYCAADVYYYHVLDFDYWGQGTQVTVSS | low polyreactivity
5 | QVQLVESGGGLVQAGGSLRLSCAASGLTFGWYTMGWYRQAPGKERELVADITWSGGSTYYADSVKGRFTISRDNAKNTVYLQMNSLKPEDTAVYYCAVRYFVIPWYAYDYWGQGTQVTVSS | low polyreactivity
6 | QVQLVESGGGLVQAGGSLRLSCAASGSIFGAYAMGWYRQAPGKETELVASITGNGGSTYYADSVKGRFTISRDNAKNTVYLQMNSLKPEDTAVYYCAADDYSTRYRWFYYGSPYYYWGQGTQVTVSS | high polyreactivity
7 | QVQLVESGGGLVQAGGSLRLSCAASGLTFRYYAMGWYRQAPGKERELVAAITRRGSTYYADSVKGRFTISRDNAKNTVYLQMNCLKPEDTAVYYCATVTGFHSSPLRDLDYWGQGTQVTVSS | high polyreactivity
8 | QVQLVESGGGLVQAGGSLRLSCAASGRIFRYNAMGWYRQAPGKERELVAAISWTVGRTYYADSVKGRFTISRDNAKNTVYLQMNSLKPEDTAVYYCATDVGYYRKYEYYYWGQGTQVTVSS | high polyreactivity
9 | QVQLVESVGGLVQAGGSLRLSCAASGSTFGFNAMGWYRQAPGKERELVAAIRRSDSSTYYADSVKGRFTISRDNAKNTVYLQMNSLKPEDTAVYYCAADVWVSWLLFKYEYWGQGTQVTVSS | low polyreactivity
10 | QVQLVESGGGLVQAGGSLRLSCAASGSIFYWYALGWYRQAPGKERELVAAITYSGDRTYYADSVKGRFTISRDNAKNTVYLQMNSLKPEVTAVYYCAKDRGSGPLDYWGQGTQVTVSS | low polyreactivity
11 | QVQLVESGGGLVHAGGSLRLSCAASGSIFAGYAMGRYRQAPGKERELVAAITSGGRTYYADSVKGRFTISRDNAKNTVYLQMNSLKPEDTAVYYCGKRWYTKTGYDYWGQGTQVTVSS | high polyreactivity
12 | QVQLVESGGGLVQAGGSLRLSCAASGRLFNEYAMGWYRQAAGNVRALVAGITWSGGSTSYADSVKGRFTISRDYAKNTVYLQMIILKPEDTAVYYCAADVYRRLRRYRYFYWGQGTQVTVSS | low polyreactivity
13 | QDQLVESGGGLVQAGGSLRLSCAASGSIFYWYAMGWYRQAPGKERELVAAISKSGGSTYYADSVKGRFTISRDTAKNTVYLQMNSLKPEDTAVYYCAARYLYQGYRFDYWGQGTQVTVSS | high polyreactivity
14 | QVHLVESGGGLVQAGGSLRLSCAASGRIFARYAMGWYRQAPGKEREFVASISFRGGSTYYADSVKGRFTISRDNAKNTVYLQMNSLKPEDTAVYYCAAEGYTRAYSGFYWYDYWGQGTQVTVSS | high polyreactivity
15 | QVQLVESGGGLVQAGGSLRLSCAASGSTFTYYAMGWYRQAPGKERELVAAISRRGGSTYYADSVKGRFTISRDNAKNTVYLQMNSLKPEDTAVYYCNVVIYSYGINGRYDYWGQGTQVTVSS | high polyreactivity
16 | QVQLVESGGGLVQAGGSLRLSCAASGRTFRLFAMGWYRQAPGKERELVAAIRSGGNTNYADSVKGRFTISRDNAKNTVYLQMNSLKPEDTAVYYCAATTYVVASRYVGSLGDDYWGHGTQVTVSS | high polyreactivity
17 | QVQLVESGGGLVQAGGSLRLSCAASGSIFGINAMGWYRQAPGKERELVAAISGSTSRTYYADSVKGRFTISRDTAKNTVYLQMNSLKPEDTAVYYCARVKGVYHFSILDYWGQGTQVTVSS | high polyreactivity
18 | QVQLVESGGGLVQAGGSLRLSCAASGRIFYSNAMGWYRQAPGKERELVAAITWRGGSTYYADSVKGRFTISRDNAKNTVYLQMNSLKPEDTAVYYCATDGYDDTHYYYWGQGTQVTVSS | low polyreactivity
19 | QLQLVESGGGLVQAGGSLRLSCAASRRIFSPNAMGWYRQAPGKESELVAAIRWNGGRTYYADSVKGRFTISRDTAKNTVYLQMNSLKPEDTAVYYCAATYFGPDYVRYDDWGQGTQVTVSS | high polyreactivity
20 | QVQLVESGGGLVQAGGSLRLSCAASGRIFYYYAMGWSRQAPGKERELVADITWSGGSTYYADSVKVRFTISRDNAKNTVYLQMNSLKTEDTAVYYCNADRLRSTHDYWGQGTQVTVSS | high polyreactivity
21 | QVQLVESGGGLVQARGSLRLSCASSGRIFDNYAMGWYRQAPGKERELVAAITYIDSGTYYADSVKGRFTISRDNAKNTVYLQMNSLKPEDTAVFYCAVGLNSDSKRKTQKYGYWGQGTQVTVSS | low polyreactivity
22 | QVQLVESGGGLVQAGGSLRLSCAASGSILAGNTMVSYRQAPGKERELVATISKRGGSTYYADSVKGRFTISRDNAKNTVYLQMNSLKPEDTAVYYCAAALRAKHYYWGQGTQVTVSS | high polyreactivity

Row | Sequence | polyreactivity (PSR sort gate)
23 | QVHLVESGGGLVQAGGSLRLSCAASGRIYTGNTMVWYRQAPGKEREFVAAISGSGGRTFYADSVKGRFTISRDNEKNTVYLQMNSLKPEDTAVYYCAARRYRSLGSYGTGSFSYNYWGQGTQVTVSS | high polyreactivity
24 | QVQLVDSGGGLVQAGGSLRLSCAASGSTFYFYAMGWYRQAPGKQRELVAAITWTDGDTYYADSVKGRFTISRDIAKNTVYLQMNSLKPEDTAVYYCATDSFWYEYDYWGQGTQVTVSS | high polyreactivity
25 | QVQLVESGGGLVQAGGSLRLSCAASGSTFLSNAMGWYRQAPGKERELVAAISVSGARTYYADSVKGRFTISRDNAKNTVYLQMNSLKPEDTAVYYCNAGTSVRYTESSDYWGQATQVTVSS | high polyreactivity
26 | QVQLEESGGGLVQAGGSLRLSCAASGSIFRGYAMGWYRQAPGKERELVAAINWSGSSTYYADSVKGRFTISRDNAKNTVYLQMNSPKPEDTAVYYCARVYYNRNLGGDYWGQGTQVTVSS | low polyreactivity
27 | QVQRVESGGGLVQAGGSLRLSCAASGVIFDDNAMGWYRQAPGKERELVAAITYRGGSTYYADSVKGRFTISRDNAKNTVYLQMNSLKPEDTAVYYCAAGGTARDDSWGQGTQVTVSS | low polyreactivity
28 | QVQLVESGGGLVQAGGSLRLSCAASGRTFRKYTMGWYRQAPGKERELVAAITLSGGSTYYADSVKGRFTISRDNAKNTVYLQMNSLKPEDTAVYYCAARYNRGAFDYWGQGTQVTVSS | high polyreactivity
29 | QVQLVESGGVLVQAGGSLRLSCAASGRIFDRNAMGWYRQAPGKERELVAAIDDSGGDTSYADSVKGRFTISRDNAKNTVYLQMNSLKPEDTAVYYCNAGYADFVTYPRYYYWGQGTQVTVSS | low polyreactivity
30 | QVQLVESGGGLVQAGGSLRLSCAASGITYDKYAMGWYRQAPGKERELVAAITKSSGSTYYADSVKGRFTISRDNAKNTVYFQMNSLKPEDTAVYYCAAGIVYGYYYWGQGTQVTVSS | high polyreactivity
31 | QDQLVESGGGLVQAGGSLRLSCAASGINFPLYAMGWYRQAAGKERELVAAISSSDGDTFYADSVKWRFTISRDNAKNTVYLQMNSLKPYDTAVYYCAAVAPTELLYTYGYYPYYYWGQGTQVTVSS | high polyreactivity
32 | QVQLVESGGGLVQAGGSLRLSCGASGSTFGTYAMGWYRQAPGKERELVAAISWSGGSTYYADSVKGRFTISRDNAKNTVYLQMNSLNPEDTAVYWGQGTQVTVSS | low polyreactivity
33 | QVQLVESGGGLVQAGGSLRLSCAASGFTFRSYAMGCYRQAPEKEMELVAAISRRGGSTYYADSVKGRFTISRDNAKNTVYLQMNSLKPEDTAVYFCAKDGTGAGTYDYWGQGTQVTVSS | low polyreactivity
34 | QVQLVESGGGLVQAGGSLRISCAASGSTFYYYAMGWYRQAPGKERELVAAISTTGGSTYYADSVKGRFTISRDNAKNTVYLQMNSLKPEDTAVYYCNAVTRYSRVRAVSSRDSEYWGQGTQVTVSS | high polyreactivity
35 | QVQLVESGGGLVQAGGSLRLSCAASGSTFTQKAMGWYRQAPGKERELVAAISSSGTRTYYADSVKGRFTISRDNAKNTVYLQMNSLKPEDTAVYYCNARYRIGSWYEFGSWGQGTQVTVSS | high polyreactivity
36 | QVQHVESGGGLVQAGGSLRLSCAASGITFFFNAIGWYRQATGKQRQLVAAITSRGGRTYYADSVKGRFTISRDNAKYTVYLQMNSLKPEDTAVYYCAATKKTGYYRYYYWGQGTQVTVSS | high polyreactivity
37 | QVQLVESGGGLVQAGGSLRLSCAASGRILDFNAMGWYRQAPGKERELVAAINNSGGSTYYADSVKGRFTISRDNAKNTVYLQMNSLKPEDTAVYYCARYAIWKRGYWGQGTQVNVSS | low polyreactivity
38 | QVQLVESGGGLVQAGGSLRLSCAASGGTFGSNTMGWYRQAPGKERELVAAITSGVSTNYADSVKGRFTISRDNAKNTVYLQMISLKPEDTAVYYCAKDLWSEEYETIITSYGFDYWGQGTQVTLSS | low polyreactivity
39 | QVQLVESGGGLVQAGGSLRLSCAASGRIFGANAMGWYRQAPGKERELVAAISYSGSRTYYADSVKGRFTISRDNAKNTVYLQMNSLKPEDTAVYYCNTGIAGRRSGYRTDSDYWGQGTQVTVSS | high polyreactivity
40 | QVQLVESGGGLVQAGGSLRLSCAASGRTFPVYAMGWYRQAPGKERELVAAIRARSVRTYYADSVKGRFTISRDNAKNTVYLQMNSLKPEDTAVYYCAAYYLNPGMDYWGQGTQVTVSS | high polyreactivity
41 | QVQLVESGGGLVQAGGSLRLSCAASGFTFWYYAMGWYRQAPGKERELVAAISSGSSTNYADSVKGRFTISRDNPKNTVYLQMNSLKPEDTAVDYCAADKYPSSPYVGDVDYWGQGTQVTVSS | high polyreactivity
42 | QVQLEESGGGLVQAGGSLRLSCAATGYTFEANAMGWYRQAPGKERELVAVITWTGGSTYYADSVKGRFTISRDNAKYTVYLQMNSLKPEDTAVYYCAADGVVPGRFFWPAHEYDFWGQGTQVTVSS | low polyreactivity
43 | QVQLVESGGGLVQAGGSLRLSCAASGFTFLDYAMGWYRQAPGKERELVAAIDDSGGSTYYADSVKGRFTISRDNAKNTVYLQMNSLKPEDTAVYYCAADWYFFSQLYDYWGQGTQVTVSS | low polyreactivity
